Test [1] concerns the target T1, human EMAPII (endothelial monocyte activating polypeptide II) antigen (human).
T1 chain: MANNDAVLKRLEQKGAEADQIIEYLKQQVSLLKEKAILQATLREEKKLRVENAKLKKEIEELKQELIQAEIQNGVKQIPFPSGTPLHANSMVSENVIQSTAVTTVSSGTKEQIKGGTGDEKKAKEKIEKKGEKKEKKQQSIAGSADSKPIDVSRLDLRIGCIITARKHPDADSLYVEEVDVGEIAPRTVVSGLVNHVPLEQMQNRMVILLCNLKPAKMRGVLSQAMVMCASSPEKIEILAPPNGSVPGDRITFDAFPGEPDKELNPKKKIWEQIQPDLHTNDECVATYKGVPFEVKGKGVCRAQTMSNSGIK
Kind of test: ELISA, plate coated with EMAPII antigen, anti-mouse IgG-HRP detection. On the technique in general: An ELISA detects its analyte on a solid surface through an enzyme-linked reagent.

In test [2] the target is T1, human EMAPII (endothelial monocyte …). As to the kind of experiment: ELISA, plate coated with 2.5 ug/ml EMAPII antigen, anti-human-IgG HRP detection; range over the 3 clones.

“And” between values parts separate entries of the source, which are not always exact repeats. Equal values may be shown once.

The values that follow come from US9382316B2, “Humanized anti-EMAP II antibody and use thereof” (Cell & Bio Co., Ltd., dated 2016).

By EC50 is commonly meant the concentration giving half of the maximal effect. The low end stands for greater potency, the high end for weaker potency.

B1: mouse anti-EMAPII monoclonal antibody (antibody, V domains shown)
VH: QVQLQQSGAELARPGASVKMSCKASGYTFTSYTMHWVKQRPGQGLEWIGYINPSSGFTNYNQKFKDKATLTADKSSSTAYMQLSSLTSEDSAVYYCASRFAYWGQGTLVTVSA
VL: DIVMTQSHKFMSTSVGDRVSITCKASQDVSTAVAWYQQKPGQSPKLLIFSASYRYTGVPDRFTGSGSGTDFTFTISSVQAEDLAVYYCQQHYSTPYTFGGGTKLEIK
In the case of B1, in test [1], the EC50 came to 0.0209 µg/mL.

B2: mouse/human chimeric antibody BAP015_1 (antibody, V domains shown)
VH: B1 VH
VL: B1 VL
B2: the 50% effective concentration (EC50) in test [2] is 0.0215 µg/mL and 0.0302 µg/mL.
